# According to US20220111042A1, “MANF as a Regulator of Immune System Function” (University of Massachusetts, priority 2014, published 2022):
# Read-outs that look alike come from different tables or passages of the source.
# B1: MANF: mesencephalic astrocyte-derived neurotrophic factor, an 18 kDa secreted protein; form used in the tests not stated (protein, UniProt P55145 25-182, looked up)
# Mesencephalic …: LRPGDCEVCISYLGRFYQDLKDRDVTFSPATIENELIKFCREARGKENRLCYYIGATDDAATKIINEVSKPLAHHIPVEKICEKLKKKDSQICELKYDKQIDLSTVDLKKLRVKELKKILDDWGETCKGCAEKSDYIRKINELMPKYAPKAASARTDL
# Tests used:
# MANF expression [1] = conditions: male C57BL/6 B cells, B cell activation (CD40 at 65 nM); cited from earlier work
# MANF expression [2] = conditions: immortalized B cells from 60 human individuals, tunicamycin to induce ER stress vs untreated; cited from earlier work
# DO 11.10 cells [3] = assay: Ara-C dose-response for cell death of DO 11.10 cells; format: cell-based; conditions: dose-response curve
# MANF expression [4] = conditions: mouse splenocytes treated with cyclophosphamide; cited from earlier work
# DO 11.10 cells [5] = assay: Dexamethasone dose-response for cell death of DO 11.10 cells; format: cell-based; conditions: dose-response curve
# Description: FIGS. 10A-B provides an analysis of MANF's ability to protect DO 11.10 cells from cell death caused by the glucocorticoid dexamethasone. […] DO 11.10 cells were pretreated for 24 hrs with MANF (dose shown; B) and then challenged with 100 nM dexamethasone to induce cell death. *p=0.003; **p=0.019.
# (§1) Because MANF is expressed in T cells and is induced when they become activated, experiments were performed to determine whether MANF confers protection to these cells. A dose-response curve was generated with the glucocorticoid dexamethasone to determine the dose that results in ˜50% cell death (24 nM) (FIG. 10A). DO 11.10 cells were then pretreated for 24 hours with 0, 10 ng/mL, 100 ng/mL, 1 μg/mL, 10 μg/mL, or 50 μg/mL MANF before exposure to 100 nM dexamethasone to investigate a protective effect for MANF. […] These are key functional data.
# KLH-specific IgM = KLH-specific IgM ELISA after injection of mice with TNP-KLH/alum with MANF or PBS; format: in vivo; conditions: 8 week old male mice, i.p. 100 μg TNP-KLH with 5% alum plus 200 μL of 1 μg/μL MANF vs PBS; blood seven days later; p=0.0013
# Description: FIG. 5 provides an ELISA analysis of anti-KLH specific IgM titers between mice injected with 2,4,6, Trinitrophenyl hapten conjugated Keyhole Limpet Hemocyanin (TNP-KLH) and either 200 μL of 1 μg/μL MANF (KLH-MANF; right) or phosphate buffered saline (KLH-PBS; left). P=0.0013, Student's t-test.
# Based on the expression in the non-germinal cells within the lymph nodes it was speculated that MANF might enhance antibody production and provide for faster and/or higher titers of antibodies following exposure to a novel antigen. To test this hypothesis, 8 week old male mice were injected intraperitoneally with 100 μg of sterile TNP-KLH (2,4,6, Trinitrophenyl hapten conjugated Keyhole Limpet Hemocyanin) with 5% alum in the presence of 200 μL of 1 μg/μL MANF or an equal volume of PBS. Blood was sampled via the submandibular vein seven days later and the KLH-specific IgM analyzed using an enzyme linked immunoassays (ELISA) from Life Diagnostics, Inc. The concentration was calculated from a standard curve. A Student's t-test was used to establish statistical significance (p=0.0013).
# DO 11.10 cells [6] = assay: MANF pretreatment protecting DO 11.10 cells from dexamethasone induced cell death; format: cell-based; conditions: 24 hours pretreatment, then 100 nM dexamethasone
# Description: FIGS. 10A-B provides an analysis of MANF's ability to protect DO 11.10 cells from cell death caused by the glucocorticoid dexamethasone. […]. DO 11.10 cells were pretreated for 24 hrs with MANF (dose shown; B) and then challenged with 100 nM dexamethasone to induce cell death. *p=0.003; **p=0.019.
# as §1
# DO 11.10 cells [7] = assay: MANF pretreatment protecting DO 11.10 cells from Ara-C induced cell death; format: cell-based; conditions: 1, 10, 100 ng/mL MANF, 24 hours pretreatment, then 10 μM Ara-C
# Description: FIGS. 11A-B provide an analysis of MANF's ability to protect DO 11.10 cells from cell death caused by the DNA damaging chemotherapeutic drug cytosine arabinoside (Ara-C). […].
# [8] = system: midbrain dopaminergic neurons; conditions: primary nigral neuron cell cultures; cited from earlier work
# dopaminergic neurons = conditions: cited from earlier work
# [9] = injection of MANF into 6-OHDA treated rat brains
molecule,measurement,setting,value
B-cell activating factor: ligand used for B cell activation in ligand screen,MANF expression,MANF expression [1],"dramatic, but transient, repression"
tunicamycin,MANF expression,MANF expression [2],higher levels of MANF expression
"Nc1ccn([C@@H]2O[C@H](CO)[C@@H](O)[C@@H]2O)c(=O)n1 [Ara-C, cytosine arabinoside]",LD50 (dose that results in 50% cell death),DO 11.10 cells [3],~5 µM
O=P1(N(CCCl)CCCl)NCCCO1 (centres unmarked) [cyclophosphamide],MANF expression,MANF expression [4],highly induced
C[C@@H]1C[C@H]2[C@@H]3CCC4=CC(=O)C=C[C@]4(C)[C@@]3(F)[C@@H](O)C[C@]2(C)[C@@]1(O)C(=O)CO [dexamethasone],LD50 (dose that results in ~50% cell death),DO 11.10 cells [5],24 nM
B1,levels of anti-KLH IgM antibodies,KLH-specific IgM,significantly increased
same,protection against dexamethasone induced cell death,"DO 11.10 cells [6]; 10 ng/mL MANF, p=0.003","statistically significant, does-dependent protection"
same,protection against dexamethasone induced cell death,"DO 11.10 cells [6]; 100 ng/mL MANF, p=0.019","statistically significant, does-dependent protection"
same,protection against dexamethasone induced cell death,"DO 11.10 cells [6]; higher doses of MANF (1, 10, 50 μg/mL)",No statistically significant effects
same,protection against Ara-C induced cell death,DO 11.10 cells [7],dose-dependent protection
same,protection of dopaminergic neurons from death,[8],protected these midbrain dopaminergic neurons from death
same,behavioral symptoms associated with the disorder,dopaminergic neurons; [9],reduced the behavioral symptoms
same,loss of dopaminergic neurons,dopaminergic neurons; [9],statistically significant reduction
same,dopaminergic neuron survival and motor defects,dopaminergic neurons; up to 4 weeks after 6-OHDA treatment,improve dopaminergic neuron survival and correct motor defects
